The text below walks through data of patent US20170290886A1, “TREATMENT OF NEURODEVELOPMENTAL DISORDERS” (Academia Sinica, priority 2016, published 2017).

For this assay, the target named is T1, MeCP2 (Homo sapiens, UniProt P51608).
T1 construct: GST; purchased Prospec
In words: In vitro SUMOylation assay with recombinant proteins. In kind it is biochemical. To be noted: E1, E2, PIAS1 and MeCP2 proteins added; FIG. 1a. As for the experimental part:
In vitro SUMOylation assay was performed by using the SUMO link kit according to the manufacturer's instructions (Active Motif, Carlsbad, Calif.). Recombinant GST-tagged MeCP2 protein (Prospec, East Brunswick, N.J.), His-tagged PIAS1 protein purified from His-bind resin (Novagen, Wis.), and GST-tagged SENP1 protein (Enzo, Ann Arbor, Mich.) were used for assays at 30° C. for 3 h and then boiled in Laemmli sample buffer at 95° C. for 10 min. The in vitro SUMOylation product was subject to 8% SDS-PAGE followed by transferring onto the NC membrane. The membrane was immunoblotted with anti-His and anti-GST antibodies.

T1 sequence (P51608 whole entry, species assumed): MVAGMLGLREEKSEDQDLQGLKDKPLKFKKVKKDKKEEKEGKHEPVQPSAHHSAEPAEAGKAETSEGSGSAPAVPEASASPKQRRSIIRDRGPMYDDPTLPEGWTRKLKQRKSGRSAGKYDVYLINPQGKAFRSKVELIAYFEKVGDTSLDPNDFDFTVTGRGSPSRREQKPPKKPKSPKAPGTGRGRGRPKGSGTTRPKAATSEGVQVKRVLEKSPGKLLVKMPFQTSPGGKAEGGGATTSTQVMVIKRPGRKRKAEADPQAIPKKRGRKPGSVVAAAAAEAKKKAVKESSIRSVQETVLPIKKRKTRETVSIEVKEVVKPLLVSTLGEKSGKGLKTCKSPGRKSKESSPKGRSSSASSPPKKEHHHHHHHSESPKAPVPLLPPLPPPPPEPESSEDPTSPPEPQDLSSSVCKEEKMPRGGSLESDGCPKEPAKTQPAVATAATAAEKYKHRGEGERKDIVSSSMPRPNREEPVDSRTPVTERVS

B1: SENP1: an enzyme that removes the sumo molecule from sumo-conjugated protein (protein, UniProt Q9P0U3 1-644, looked up)
Sentrin-specific protease 1: MDDIADRMRMDAGEVTLVNHNSVFKTHLLPQTGFPEDQLSLSDQQILSSRQGHLDRSFTCSTRSAAYNPSYYSDNPSSDSFLGSGDLRTFGQSANGQWRNSTPSSSSSLQKSRNSRSLYLETRKTSSGLSNSFAGKSNHHCHVSAYEKSFPIKPVPSPSWSGSCRRSLLSPKKTQRRHVSTAEETVQEEEREIYRQLLQMVTGKQFTIAKPTTHFPLHLSRCLSSSKNTLKDSLFKNGNSCASQIIGSDTSSSGSASILTNQEQLSHSVYSLSSYTPDVAFGSKDSGTLHHPHHHHSVPHQPDNLAASNTQSEGSDSVILLKVKDSQTPTPSSTFFQAELWIKELTSVYDSRARERLRQIEEQKALALQLQNQRLQEREHSVHDSVELHLRVPLEKEIPVTVVQETQKKGHKLTDSEDEFPEITEEMEKEIKNVFRNGNQDEVLSEAFRLTITRKDIQTLNHLNWLNDEIINFYMNMLMERSKEKGLPSVHAFNTFFFTKLKTAGYQAVKRWTKKVDVFSVDILLVPIHLGVHWCLAVVDFRKKNITYYDSMGGINNEACRILLQYLKQESIDKKRKEFDTNGWQLFSKKSQEIPQQMNGSDCGMFACKYADCITKDRPINFTQQHMPYFRKRMVWEILHRKLL
modifications: GST tag
notes: an enzyme that removes the sumo molecule from sumo-conjugated protein
Turning to B1, the “MeCP2 SUMOylation” value was “blocked”.
